Assay results reported in patent publication US20140271457A1 (AbbVie / Abbott, published 2014).

B1: DVD3169 (bispecific antibody, IgG1)
VH: EVQLVQSGAEVKKPGASVKVSCKASGYTFTSYWMHWVRQAPGQGLEWIGNINPKGGSNIYNEKFQGRVTMTRDTSISTAYMELSRLRSDDTAVYYCARLDYFGDSFDLWGQGTTVTVSSASTKGPEVQLVQSGAEVKKPGASVKVSCKASGYTFANYGIIWVRQAPGQGLEWMGWINTYTGKPTYAQKFQGRVTMTTDTSTSTAYMELSSLRSEDTAVYYCARKLFTTMDVTDNAMDYWGQGTTVTVSS
VL: DIQMTQSPSSLSASVGDRVTITCRASQGIRNYLNWYQQKPGKAPKLLIYYASNLEVGVPSRFSGSGSGTDYTLTISSLQPEDFATYYCQQDNRFPYTFGGGTKVEIKRTVAAPDIQMTQSPSSLSASVGDRVTITCRASQDISQYLNWYQQKPGKAPKLLIYYTSRLQSGVPSRFSGSGSGTDFTLTISSLQPEDFATYFCQQGNTWPPTFGQGTKLEIKR
notes: DVD-Ig; wt hIgG1 + kappa constants
B2: DVD3168 (bispecific antibody, human IgG1, kappa)
heavy: not shown
light: DIQMTQSPSSLSASVGDRVTITCRASQGIRNYLNWYQQKPGKAPKLLIYYASNLEVGVPSRFSGSGSGTDYTLTISSLQPEDFATYYCQQDNRFPYTFGGGTKVEIKRGGSGGGGSGDIQMTQSPSSLSASVGDRVTITCRASQDISQYLNWYQQKPGKAPKLLIYYTSRLQSGVPSRFSGSGSGTDFTLTISSLQPEDFATYFCQQGNTWPPTFGQGTKLEIKRTVAAPSVFIFPPSDEQLKSGTASVVCLLNNFYPREAKVQWKVDNALQSGNSQESVTEQDSKDSTYSLSSTLTLSKADYEKHKVYACEVTHQGLSSPVTKSFNRGEC
notes: DVD-Ig: outer AB399 (IL-13), inner AB441 (TNF); linkers GS-H10/GS-L10; also called DVD3168H; DVD3168L
B3: DVD3169 (bispecific antibody, human IgG1, kappa)
heavy: not shown
light: DIQMTQSPSSLSASVGDRVTITCRASQGIRNYLNWYQQKPGKAPKLLIYYASNLEVGVPSRFSGSGSGTDYTLTISSLQPEDFATYYCQQDNRFPYTFGGGTKVEIKRTVAAPDIQMTQSPSSLSASVGDRVTITCRASQDISQYLNWYQQKPGKAPKLLIYYTSRLQSGVPSRFSGSGSGTDFTLTISSLQPEDFATYFCQQGNTWPPTFGQGTKLEIKRTVAAPSVFIFPPSDEQLKSGTASVVCLLNNFYPREAKVQWKVDNALQSGNSQESVTEQDSKDSTYSLSSTLTLSKADYEKHKVYACEVTHQGLSSPVTKSFNRGEC
notes: DVD-Ig: outer AB399 (IL-13), inner AB441 (TNF); linkers HG-short/LK-short; also called DVD3169H; DVD3169L

Columns and labels:
[1] = biological target: T1, Recombinant Human TNF-α/TNFSF1A (human, UniProt P01375 77-233); test: cell-based or functional assay
T1 sequence (P01375 77-233 limits assumed): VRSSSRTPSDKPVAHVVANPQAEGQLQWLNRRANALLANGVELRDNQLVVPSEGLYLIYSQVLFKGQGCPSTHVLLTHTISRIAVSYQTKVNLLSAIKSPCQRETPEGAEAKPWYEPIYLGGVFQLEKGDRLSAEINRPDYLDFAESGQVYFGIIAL

[2] = biological target: T1, Recombinant Human TNF-α/TNFSF1A; test: Biacore SPR
How it was run: (§1)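 Kinetic constants come from global 1:1 model fitting (Rmax local) at 0.8–100 nM antigen. Flow was 50 μl/min with 5 min association and 10 min dissociation. Capture used goat anti-mouse IgG Fcγ on a CM5 chip in HBS-EP+ at 25 °C.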

[3] = biological target: Recombinant Human IL-13 (human, UniProt P35225 35-146, limits assumed); test: Biacore SPR
How it was run: as §1
Target sequence in this assay (P35225 35-146 limits assumed): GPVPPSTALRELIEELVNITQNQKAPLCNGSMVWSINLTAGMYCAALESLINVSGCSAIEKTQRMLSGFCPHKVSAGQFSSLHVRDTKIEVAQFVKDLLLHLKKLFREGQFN

[4] = biological target: Recombinant Human IL-13 (human, UniProt P35225 35-146, limits assumed); test: cell-based or functional assay
Target sequence in this assay (P35225 35-146 limits assumed): as above

[5] = biological target: T2, Recombinant Human TNF-α/TNFSF1A (human, UniProt P01375 77-233); test: SPR (Biacore)
T2 construct: also called huTNFα
T2 sequence (P01375 77-233 limits assumed): as the sequence (P01375 77-233 limits assumed) above

Row | Binder | C-Terminal VD huTNFα Neutralization Assay IC50 [1] [nM] | Kd [2] [pM] | koff [2] [s⁻¹] | kon [2] [M⁻¹ s⁻¹] | Kd [3] [nM] | koff [3] [s⁻¹] | kon [3] [M⁻¹ s⁻¹] | IL-13 Neutralization Assay IC50 [4] [nM] | binding result [5]
1 | B1 | 0.169 | < 1.5 | < 1e-06 | 650000 | 0.01 | 2e-05 | 1.9e+06 | – | –
2 | B2 | – | – | – | – | – | – | – | 0.081 | binds
3 | B3 | – | – | – | – | – | – | – | 0.089 | binds
